In paper PMC5677370, “Structure-based nuclear import mechanism of histones H3 and H4 mediated by Kap123” (eLife, 2017) one finds other: relative intensity of H3 1-59-Sumo remaining bound to Kap123 after competition and fold affinity relative to H4-NLS data, which are given here for two substances.

Assay [1] addresses MBP-tagged Kap123. Description: amylose affinity pull-down competition assay. The note with it: pre-assembled MBP-Kap123 and H3 1-59-Sumo, value at 0X set to 1.0, read off a plot.
Assay [2] deals with full-length Kluyveromyces lactis (Kl) Kap123, wild type (Kluyveromyces lactis). Description: SPR; wild-type Kl Kap123 immobilised on a CM5 chip (10 mM acetate pH 4.0); wild-type or mutant H3 or H4 peptides injected at 30 μl/min in binding buffer (10 mM HEPES, 150 mM NaCl); 7°C. Background: In SPR one partner is held on a chip, and binding of the other changes the refractive index at the surface.

Chain of MBP-tagged Kap123 (chain, as listed by the source): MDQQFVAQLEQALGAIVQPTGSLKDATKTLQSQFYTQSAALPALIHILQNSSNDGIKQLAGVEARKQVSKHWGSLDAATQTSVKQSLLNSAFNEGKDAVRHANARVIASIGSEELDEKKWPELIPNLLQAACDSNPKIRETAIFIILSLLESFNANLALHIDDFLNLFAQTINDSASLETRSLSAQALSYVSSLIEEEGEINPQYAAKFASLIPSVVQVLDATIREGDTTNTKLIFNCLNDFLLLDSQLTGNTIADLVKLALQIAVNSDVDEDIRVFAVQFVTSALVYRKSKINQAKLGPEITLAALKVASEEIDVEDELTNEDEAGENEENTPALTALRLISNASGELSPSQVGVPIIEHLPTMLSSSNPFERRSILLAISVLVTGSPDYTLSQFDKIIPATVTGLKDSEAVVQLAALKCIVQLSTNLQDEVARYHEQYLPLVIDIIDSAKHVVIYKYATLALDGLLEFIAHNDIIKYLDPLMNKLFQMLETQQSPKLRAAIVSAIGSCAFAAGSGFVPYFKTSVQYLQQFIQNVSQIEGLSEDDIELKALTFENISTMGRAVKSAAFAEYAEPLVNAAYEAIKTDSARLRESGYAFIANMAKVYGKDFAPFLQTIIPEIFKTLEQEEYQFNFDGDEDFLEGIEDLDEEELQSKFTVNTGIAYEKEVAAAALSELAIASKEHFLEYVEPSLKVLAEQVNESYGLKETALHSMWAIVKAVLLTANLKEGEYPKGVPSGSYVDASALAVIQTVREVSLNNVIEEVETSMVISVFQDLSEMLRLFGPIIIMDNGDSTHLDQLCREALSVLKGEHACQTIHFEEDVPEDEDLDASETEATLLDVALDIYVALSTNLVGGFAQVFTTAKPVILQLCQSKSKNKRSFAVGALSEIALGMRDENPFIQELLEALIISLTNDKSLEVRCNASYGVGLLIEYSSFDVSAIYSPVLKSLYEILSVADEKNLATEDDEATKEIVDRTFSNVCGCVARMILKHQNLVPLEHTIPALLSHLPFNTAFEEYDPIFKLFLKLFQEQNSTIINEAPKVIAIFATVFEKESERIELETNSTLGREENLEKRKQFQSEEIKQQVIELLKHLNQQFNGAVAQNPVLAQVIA

“C-terminal Sumo-tagged histone H4_(1–48), P02309 K5Q; K8Q; K12Q”: the other: relative intensity of H3 1-59-Sumo remaining bound to Kap123 after competition in assay [1] (competitor at 1X, parent: est. 0.88) is 0.99; in assay [1] (competitor at 2X, parent: est. 0.67), 0.99; in assay [1] (competitor at 5X, parent: est. 0.32), 0.94; in assay [1] (competitor at 10X, parent: est. 0.13) it was 0.96.
For the substance “wild-type H3_(1–35)-NLS peptide (injected as analyte) (from UniProt P61830 2-36)”, the fold affinity relative to H4-NLS in assay [2] is 5 fold.
